Data taken from article PMC3135787.

Key:
Hint1 activity assay = substrate: COc1nc(N)nc2c1ncn2[C@@H]1O[C@H](COP(=O)(O)N[C@@H](C)C(=O)O)[C@@H](O)[C@@]1(C)F; test: Hint1 activity assay; assay type: biochemical; conditions: other: Hint1, 37 °C, pH 7.2
[1] = substrate: Nc1nc2c(ncn2[C@@H]2O[C@H](COP(=O)(O)O)[C@@H](O)[C@H]2O)c(=O)[nH]1; test: hGUK1-mediated phosphorylation, coupled spectrophotometric assay; assay type: biochemical, human; conditions: other: hGUK1, 37°C

B1: Hint1 (Homo sapiens) (protein)
chain: MADEIAKAQVARPGGDTIFGKIIRKEIPAKIIFEDDRCLAFHDISPQAPTHFLVIPKKHISQISVAEDDDESLLGHLMIVGKKCAADLGLNKGYRMVVNEGSDGGQSVYHVHLHVLGGRQMHWPPG
Km (Hint1 activity assay): 445 ± 182 µM | kcat (Hint1 activity assay): 0.0573 s⁻¹

B2: Human guanylate kinase (hGUK1) (Homo sapiens) (protein)
chain: MSGPRPVVLSGPSGAGKSTLLKRLLQEHSGIFGFSVSHTTRNPRPGEENGKDYYFVTREVMQRDIAAGDFIEHAEFSGNLYGTSKVAVQAVQAMNRICVLDVDLQGVRNIKATDLRPIYISVQPPSLHVLEQRLRQRNTETEESLVKRLAAAQADMESSKEPGLFDVVIINDSLDQAYAELKEALSEEIKKAQRTGA
Km [1]: 19.1 ± 4.5 µM | kcat [1]: 74.7 ± 17.6 s⁻¹ | kcat/Km [1]: 3.9e+06 M⁻¹ s⁻¹
